Bridges are numbered along the chain shown (N, C = ends). Where no end group is shown, it is not given here. [ ]: non-standard residue; d: D form. S5 = C=CCCC[C@](C)(N)C(=O)O
What was measured:
[1] = target: T1, LBD fragment of human Nur77 (residues 351–598) (human, UniProt P22736 351-598); assay: MST; purified Nur77 LBD labelled with fluorescent dye; peptides 0.1-100 × 10^-6 M; PBST (0.05% Tween-20); 20 min at room temperature; Dianthus (NanoTemper); settings: both partners purified
T1 construct: Labelled with a fluorescent dye for MST; amine-coupled to the chip for SPR; also called Nur77 LBD; Nur77-LBD; source: E. coli BL21(DE3), purified (Ni-NTA, Superdex 200 gel filtration)

[2] = target: T1, LBD fragment of human Nur77 (residues …); assay: MST; settings: both partners purified
[3] = target: T1, LBD fragment of human Nur77 (residues …); assay: SPR; settings: both partners purified
[4] = target: T2, SmallBit-Nur77 (luciferase SmallBit fusion of Nur77) (UniProt P22736 1-598); assay: split reporter (BiFC, NanoBiT); settings: one partner purified
T2 construct: Nur77; source: HEK293T, transiently transfected, in living cells
T2 sequence (P22736 whole entry, the tested form may be a part): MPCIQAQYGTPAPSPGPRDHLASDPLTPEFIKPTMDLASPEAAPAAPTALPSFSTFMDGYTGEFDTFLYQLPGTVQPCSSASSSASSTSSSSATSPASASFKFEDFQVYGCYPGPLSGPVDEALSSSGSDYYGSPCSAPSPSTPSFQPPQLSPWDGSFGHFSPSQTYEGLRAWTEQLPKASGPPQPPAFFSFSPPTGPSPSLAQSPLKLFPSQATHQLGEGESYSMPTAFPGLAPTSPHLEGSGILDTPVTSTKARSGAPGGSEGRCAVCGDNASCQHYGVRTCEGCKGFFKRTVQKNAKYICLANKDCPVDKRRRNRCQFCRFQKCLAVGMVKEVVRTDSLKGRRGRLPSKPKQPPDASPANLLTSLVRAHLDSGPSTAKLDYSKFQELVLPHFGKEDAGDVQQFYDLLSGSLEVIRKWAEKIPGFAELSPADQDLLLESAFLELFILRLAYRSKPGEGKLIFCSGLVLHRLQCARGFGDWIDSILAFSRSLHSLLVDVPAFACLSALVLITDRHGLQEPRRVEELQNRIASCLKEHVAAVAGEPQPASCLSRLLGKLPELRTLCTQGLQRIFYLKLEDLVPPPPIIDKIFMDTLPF

T1 sequence (P22736 351-598): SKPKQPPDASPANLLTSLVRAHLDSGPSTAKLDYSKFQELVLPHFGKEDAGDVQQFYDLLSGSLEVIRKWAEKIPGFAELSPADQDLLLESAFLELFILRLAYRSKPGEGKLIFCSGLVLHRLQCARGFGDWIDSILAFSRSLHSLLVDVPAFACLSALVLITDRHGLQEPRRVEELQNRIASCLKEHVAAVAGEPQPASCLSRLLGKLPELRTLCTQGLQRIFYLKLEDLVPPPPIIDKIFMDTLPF

Row | Binder | Kd [1] [µM] | binding result [1] | also measured
1 | CEGCKGF[S5]RRT[S5]RY-NH2 (staple 8-12; cysteine pairing not given here) [S-CY14 (stapled CY14)] | 3.96 | – | –
2 | CEGCKGFFRRTIRY-NH2 (peptide, UniProt P37231 156-169, looked up, cysteine pairing not given here, PPARγ, residues Cys156-Leu169, with Leu169 mutated to Tyr; source: synthetic peptide (Fmoc SPPS on Rink Amide MBHA resin)) [CY14 (CL14 with Leu169 mutated to Tyr)] | 8.7 | – | –
3 | CEGCKGFFRRTIRH (peptide, UniProt P37231 156-169, looked up, PPARγ, residues Cys156-Leu169, with Leu169 mutated to His; source: synthetic peptide (Fmoc SPPS on Rink Amide MBHA resin)) [CH14 (CL14 with Leu169 mutated to His)] | – | binds | –
4 | CEGCKGFFRRTIRW (peptide, UniProt P37231 156-169, looked up, PPARγ, residues Cys156-Leu169, with Leu169 mutated to Trp; source: synthetic peptide (Fmoc SPPS on Rink Amide MBHA resin)) [CW14 (CL14 with Leu169 mutated to Trp)] | – | binds | –
5 | CEGCKGFFRRTIRF (peptide, UniProt P37231 156-169, looked up, PPARγ, residues Cys156-Leu169, with Leu169 mutated to Phe; source: synthetic peptide (Fmoc SPPS on Rink Amide MBHA resin)) [CF14 (CL14 with Leu169 mutated to Phe)] | – | binds | –
6 | CEGCKGFFRRTIRL-NH2 (peptide, UniProt P37231 156-169, looked up, cysteine pairing not given here, PPARγ, residues Cys156-Leu169 of the DBD; Made on Rink amide resin, so probably a C-terminal amide; source: synthetic peptide (Fmoc SPPS on Rink Amide MBHA resin)) [CL14, α-helix of PPARγ (residues Cys156-Leu169)] | 27.2 | – | –
7 | H-CEGCKGF[S5]RRT[S5]RYYGRKKRRQRRR-NH2 (staple 8-12; cysteine pairing not given here) [ST-CY14 (stapled T-CY14)] | – | – | Kd [2]: 0.668 µM; Kd [3]: 0.0325 µM; EC50 [4]: 3.15 µM
8 | CEGCKGFFRRTIRYRKKRRQRRR-NH2 (cysteine pairing not given here) [T-CY14 (CY14 with the TAT sequence conjugated to its C-terminus)] | – | – | Kd [2]: 4.18 µM
9 | SRNKCQYCRFQKCLAV-NH2 (peptide, UniProt P37231 186-201, looked up, cysteine pairing not given here, PPARγ, residues Ser186-Val201 of the DBD; Made on Rink amide resin, so probably a C-terminal amide; source: synthetic peptide (Fmoc SPPS on Rink Amide MBHA resin)) [SV16, α-helix of PPARγ (residues Ser186-Val201)] | 156 | – | –
